Data reported in publication doi:10.1101/2022.03.17.484533.

Experiments:
[1] = target: LiRecT (RecT homolog from the A118 prophage of Listeria innocua) (Listeria innocua); assay: cryo-EM structure
[2] = target: LiRecT (RecT homolog from the A118 prophage of Listeria innocua) (Listeria innocua); assay: native MS
[3] = target: LiRecT (RecT homolog from the A118 prophage of Listeria innocua) (Listeria innocua); assay: cryo-EM structure; remark: listed apart in the source

Substance: LiRecT (RecT homolog from the A118 prophage of Listeria innocua) (natural protein)
- stoichiometry N [1]: 18 subunits
- stoichiometry N [2]: < 9 subunits
- stoichiometry N [3]: 12 subunits
